Experimental data published in the DeepSol protein solubility set.

Test: soluble on expression in E. coli; label from the status in PepcDB or PDB records

Row | Sequence | soluble on expression in E. coli
1 | MGSDKIHHHHHHMSVAEPNSHTQRNQPRPIRVGVIGVGNMGQHHTRVLSSMKDVELVGVSDINVERGLETASKYKVRFFEDYCDLLPHVEAVCIAVPTRLHYAVGINCLLAGIHVLIEKPIAASISEAESLVNAAAESQCILQVGHIERFNPAFRELSKVMKTEEVLALEAHRMSPYSDRANDVSVVLDLMIHDIDLLLELAASPVTKLTASGTRALDSGYLDYVTATLGFANGIVATLTASKVTHRKIRRIVAHCKNSFTEADFLKNEILIHRQTSASPVNDHRHYRQDGLIEKVYTTNIQPLSAELEHFVNCVHGGNQPSVGGEQALKALRLASLIEQMALEERVWNPLDWQSESRVQSLTQSV | not soluble
2 | MGSDKIHHHHHHMANVKWTMKAREFVNCNCAYGCPCQFNAMPTHGFCQAVTGIEIESGHHGATKLDGLRLVGIFRWPGAIHQGGGEAAVVVDERASEAQREALLRILGGQDTKPGATIFEVFSTTLEKFHDPIFAPIEFEVDVDARTGRLHVEGVADGHGEPIKNPVTGAEHRARIDLPHGFEYAMAEIGRGWTKATGPIKFEVADTHSHFANLHLTQSGVVH | not soluble
3 | MSLDRVDWPHATFSTPVKRIFDTQTTLDFQSSLAIHRIKYHLHKYTTLISHCSDPDPHATASSIAMVNGLMGVLDKLAHLIDETPPLPGPRRYGNLACREWHHKLDERLPQWLQEMLPSEYHEVVPELQYYLGNSFGSSTRLDYGTGHELSFMATVAALDMLGMFPHHRGADVFLLFNKYYTIMRRLILTYTLEPAGSHGVWGLDDHFHLVYILGSSQWQLLDAQAPLQPREILDKSLVREYKDTNFYCQGINFINEVKMGPFEEHSPILYDIAVTVPRWSKVCKGLLKMYSVEVEKKFPVVQHFWFGTGFFPWVNIHHHHHH | soluble
4 | MGSDKIHHHHHHMYQQVIDFIEHQKKIGALHPGDKLPSLRKLSRQFDISVPTVKQAYIELERQGQVCAKPQSGYYLQAMQARTLKPRPAKWAQCDPVEVQGRSMIEQVHAAVHLPNTVALGISNPIQAHPPDKALARLMRSVLSKVSEKAVSYGPVTGDAKLRMQLAFRYQDQGVETNPDDIVITNGAQEALSIALQCVAKRGDIIAIESPCFFGMIELIETLGMKALEVYTCTEDGVCVEDLAEAINQHDITACLFSTAINNPLGSMKTDEQRQAMVSLLEQHDIPLIEDEVYSEIYFTDNKPKPAQLYSEKGLVMTCSSFSKTAAPGYRIGWLLPGKFEEQAKRIKRAQSASTPMLQQWTLNEYLLSGDYDRHLCVLRKTLAYNCERMRALIAEHFPPEVCISKPLGGSVLWLRCQSHVKTGEFFQQALTQGVSFAPGAIFSPSGKYQNYMRVSYGVQWGEDVETAVKVLGQLVYEYTSKQKTAQLMEKQ | not soluble
5 | MAHHHHHHMSQLKIKRGNFLFTSESVNEGHPDKICDQISDAILDSCLREDPYSKVACEVCAKKNYIFIFGEITTKAKVNYDKVTRDVLKHIGYDDESKGLDYKTAEIKVSIDEQSPDIAQCVHENRSPELIGAGDQGIMFGYATDETENYMPLTHHYATLLGKRLTEVRKLGILPYLGPDGKTQITIEYKNKGSCGGHLEPLRVHTVLISTQHAEDIKYEQLKTDLMENVIKYVIPEKLLDNETLYYLNPSGKFVLGGPAADAGLTGRKIICDTYGGWGAHGGGAFSGKDASKVDRSAAYYLRFIAKSLVANKFCRRVLVQASYSIGIANPISLNVNSYGTVSTGYTDYDLEQIILRNFDLRPGFIIQELKLTEPVFSKTSAYGHFGREGDTFTWEKIKDLSHEKNALKN | soluble
6 | MAHHHHHHMGNTGVPSFVSTLGPPPPINLFKECQSPLTSGFSSWASFHWILLSDAFSHYYRPLECQTFYGCNFQKQLDAAANYNSFWPHHSRRLEAIRSNTPEQLCITSLHPPSRSPLTQQFPSGSFTQSPYGCRPRSLPCTAPQQWQMHRRSLQQGREHEAGRLLQQPLSFSLI | not soluble
7 | MGSDKIHHHHHHMPKEKYEPPDPRRMYTIMSSEEAANGKKSHWAELEISGKVRSLSSSLWSLTHLTALHLSDNSLSCIPSDIAKLHNLVYLDLSHNQIQSLPAELGNMVSLRELHLNYNQLRVLPFELGKLFQLQTLSLKGNPLTQDILNLCLEPDGTRRLLNYLLDNLSVSTEQPPPRSWIMLQEPDRTRPTALFSVMCYNVLCDKYATRQLYGYCPSWALNWDYRKKAIIQEILSCNADIISLQEVETEQYYSFFLVELKERGYNGFFSPKSRARTMSEQERKHVDGCAIFFKTEKFTLVQKHTVEFNQLAMANSEGSEAMLNRVMTKDNIGVAVLLELRKELIEMSSGKPHLGTEKQLILVANAHMHWDPEYSDVKLVQTMMFLSEVKNIIDKASRSLKSSVLGECGTIPLVLCADLNSLPDSGVVEYLSTGGVETNHKDFKELRYNESLTNFSCNGKNGMTNGRITHGFKLKSAYENGLMPYTNYTFDFKGIIDYIFYSKPQLNTLAILGPLDHHWLVENNISGCPHPLIPSDHFSLFAQLELLLPFLPQVNGIHLPGRR | not soluble
8 | MKGTIFAVALNHRSQLDAWQEAFQQSPYKAPPKTAVWFIKPRNTVIGCGEPIPFPQGEKVLSGATVALIVGKTATKVREEDAAEYIAGYALANDVSLPEESFYRPAIKAKCRDGFCPIGETVALSNVDNLTIYTEINGRPADHWNTADLQRNAAQLLSALSEFATLNPGDAILLGTPQARVEIQPGDRVRVLAEGFPPLENPVVDEREVTTRKSFPTLPHPHGTLFALGLNYADHASELEFKPPEEPLVFLKAPNTLTGDNQTSVRPNNIEYMHYEAELVVVIGKQARNVSEADAMDYVAGYTVCNDYAIRDYLENYYRPNLRVKSRDGLTPMLSTIVPKEAIPDPHNLTLRTFVNGELRQQGTTADLIFSVPFLIAYLSEFMTLNPGDMIATGTPKGLSDVVPGDEVVVEVEGVGRLVNRIVSEETAK | soluble
9 | FPRVSQELKTALSTLQQTFVVSDATQPHCPIVYASSGFFTMTGYSSKEIVGRNCRFLQGPDTDKNEVAKIRDCVKNGKSYCGRLLNYKKDGTPFWNLLTVTPIKDDQGNTIKFIGMQVEVSKYTEGVNDK | soluble
10 | MAEVFVGPVAQGYASGEVTVLLASPRSFCAGVERAIETVKRVLDVAEGPVYVRKQIVHNTVVVAELRDRGAVFVEDLDEIPDPPPPGAVVVFSAHGVSPAVRAGADERGLQVVDATCPLVAKVHAEAARFAARGDTVVFIGHAGHEETEGTLGVAPRSTLLVQTPADVAALNLPEGTQLSYLTQTTLALDETADVIDALRARFPTLGQPPSEDICYATTNRQRALQSMVGECDVVLVIGSCNSSNSRRLVELAQRSGTPAYLIDGPDDIEPEWLSSVSTIGVTAGASAPPRLVGQVIDALRGYASITVVERSIATETVRFGLPKQVRAQ | not soluble
11 | TATRVRPREYALRYPYMQVNRPGMVSWLVFDLDHANALAWDDAGLPAPNLMVRNRKSGHSQLFYAVPSVCTTENARTKPIQYMKAIYAAFAARLDADVDYHGGPVAKTPGHPWWETTEFHSHVYELGELASAVELTVKPWATGPKLDQVSHSRHCILFEQLRYFAYSIVNRERELGSFESFMRSLDAYAYNHNSFLKQGFSENLPLSSIRATVKSVGRWTWDRYTGDRRCHRGAMQLDGSLSLTERQSLAAKRTNELRH | not soluble
12 | MSQLDLLNIVHRPRRLRRTAALRNLVQENTLTVNDLVFPLFVMPGTNAVEEVSSMPGSFRFTIDRAVEECKELYDLGIQGIDLFGIPEQKTEDGSEAYNDNGILQQAIRAIKKAVPELCIMTDVALDPFTPFGHDGLVKDGIILNDETVEVLQKMAVSHAEAGADFVSPSDMMDGRIGAIREALDETDHSDVGILSYAAKYASSFYGPFRDALHSAPQFGDKSTYQMNPANTEEAMKEVELDIVEGADIVMVKPGLAYLDIVWRTKERFDVPVAIYHVSGEYAMVKAAAAKGWIDEDRVMMESLLCMKRAGADIIFTYYAKEAAKKLR | soluble
13 | MGSSHHHHHHDYDIPTTENLYFQGHMATNLKSTAKLVKPIQYDEVIEVERIFADPAFIEQHRQRILASFKDAKESALYHELTHIVIKDNLFSCAMNAIVGYFEFNIDEAELKNVMEGLKRDVIQGAEDNTVQAIAEKIIKKALVFNHLQKEWKVEITDEVVKNVISLYYEKTNQSVREYLDDKQKFEGVRTALLEERMVLETINHFKFHFNLTGQLPN | soluble
14 | EEQPRLFELLGQPGYKATWHAMFKGESDVPKWVSDASGPSSPSTSLSLEGQPYVLANSCKPHDCGNNRLLVAFRGDKSAAYGLQVSLPDEPAEVMQTPSKYATYRWYGEPSRQVRELLMKQLESDPNWKLEHHHHHH | soluble
15 | MASKDKEINNTIDAIEDKNFKQVYKDSSYISKSDNGEVEMTERPIKIYNSLGVKDINIQDRKIKKVSKNKKRVDAQYKIKTNYGNIDRNVQFNFVKEDGMWKLDWDHSVIIPGMQKDQSIHIENLKSERGKILDRNNVELANTGTAYEIGIVPKNVSKKDYKAIAKELSISEDYIKQQMDQNWVQDDTFVPLKTVKKMDEYLSDFAKKFHLTTNETESRNYPLEKATSHLLGYVGPINSEELKQKEYKGYKDDAVIGKKGLEKLYDKKLQHEDGYRVTIVDDNSNTIAHTLIEKKKKDGKDIQLTIDAKVQKSIYNNMKNDYGSGTAIHPQTGELLALVSTPSYDVYPFMYGMSNEEYNKLTEDKKEPLLNKFQITTSPGSTQKILTAMIGLNNKTLDDKTSYKIDGKGWQKDKSWGGYNVTRYEVVNGNIDLKQAIESSDNIFFARVALELGSKKFEKGMKKLGVGEDIPSDYPFYNAQISNKNLDNEILLADSGYGQGEILINPVQILSIYSALENNGNINAPHLLKDTKNKVWKKNIISKENINLLTDGMQQVVNKTHKEDIYRSYANLIGKSGTAELKMKQGETGRQIGWFISYDKDNPNMMMAINVKDVQDKGMASYNAKISGKVYDELYENGNKKYDIDE | soluble
16 | GEADSGDGDSSEYQDGKEFGIGDLVWGKIKGFSWWPAMVVSWKATSKRQAMSGMRWVQWFGDGKFSEVSADKLVALGLFSQHFNLATFNKLVSYRKAMYHALEKARVRAGKTFPSSPGDSLEDQLKPMLEWAHGGFKPTGIEGLKPNNTQP | soluble
17 | TPLSLTLDHWSEIRSRAHNLSVEIKKGPWRTFCASEWPTFDVGWPPEGTFDLTVIFEVKAIVFQDGPGSHPDQQPYITVWQDLVQNSPPWIK | soluble
18 | MPINGIKIKNSSGEEVYVLKEKGSVVNFGREKKVCHITFDPHAARVSRIHASIEWGDEGLFFTDKSKEGTEINGTRLKQSSQELHEGVYQLAIGGISMTLEVDGDELEETVIDSPQPDESSTVPETVYEESRYSNSSIKEMPAVEVTDDE | not soluble
19 | MEDIIFGKRSNVFDVNPENTVFVLIAGTSEVSTVPGITSAGATPELTRLTPAIDSEIIGEGKCLSSKDPPMTPEGIPTPAIVTKAILSLTNIRYIIVNGGFYAKPKTPFIETGLKPSNNPAVKTAIEDLDAAIHAGEHIGRLLDGVFENIILAESVPGGTTTAYAVLKAIGINAKTSSSMKEDPFSIKEKIAEMSFRRKLEKSPLGAVKEYGDNMMAVSLGISSSVKRSKIIFGGGTQMATVMYLDRLINGMRDRYISTTGWVYYHRTELFSDLGLSDYLAVSAMDFSGMKHPGLRYYQYGHVREGTGMGAAFLLARLMNFEAEAIYKSVDDFYEQFI | not soluble
20 | MKSVTSAQRPYQEVGAMIHDLIIKTPYNPGERLPPEREIAEMLDVTRTVVREALIMLEIKGLVEVRRGAGIYVLDSSGSHNTDSPDANVCNDAGPFELLQARQLLESNIAEFAALQATREDIVKMRQALQLEERELASSAPGSSESGDMQFHLAIAEATHNSMLVELFRQSWQWRENNPMWIQLHSHLDDSLYRKEWLGDHKQILAALIKKDARAAKLAMWQHLENVKQRLLEFSNVDDIYFDGYLFDSWPLDKVDA | not soluble
21 | ASEKVEMNLVTSQGVGQSIGSVTITETDKGLEFSPDLKALPPGEHGFHIHAKGSCQPATKDGKASAAESAGGHLDPQNTGKHEGPEGAGHLGDLPALVVNNDGKATDAVIAPRLKSLDEIKDKALMVHVGGDNMSDQPKPLGGGGERYACGVIK | soluble
